Assay [1] has as its target T1, Human glypican-3 on cells (Huh7, Hep3B, H446, Hep3B xenograft tissue) (human, UniProt P51654 25-554). Description: cell-based or functional assay.
The target in assay [2] is T2, Recombinant human glypican-3 (aa 1-559), His-tagged, R&D Systems (human, UniProt P51654 25-559).
T2 construct: also called huGPC3; Hu GPC3-His
In words: SPR KD, 37 C, Biacore T100. How it is done: (§1) For off-rate measurements, single 200 nM adnectin/AdxDC concentrations were injected using identical conditions. One 30s injection of 10 mM glycine pH 1.7 was used to remove bound adnectin and regenerate the GPC3 surfaces between assay cycles.
(§2) Rate constants kₐ (kₒₙ) and kd (koff) were derived from reference-subtracted sensorgrams fit to a 1:1 binding model in Biacore T100 Evaluation Software v2.0.4 (GE Healthcare). The affinity constant, KD was calculated from the ratio of rate constants kd/kₐ.
In general terms: In SPR one partner is held on a chip, and binding of the other changes the refractive index at the surface.

Assay [3] has as its target T1, Human glypican-3 on cells (Huh7, Hep3B, …). Description: flow cytometry on Hep3B cells, His Tag PE antibody. How it is done:
GPC3 AdxDC were evaluated by flow cytometry for binding to human Hep3B hepatocellular carcinoma cells grown in MEM with 10% FBS, and H446 small cell lung carcinoma cells grown in RPMI with 10% FBS. Cells were harvested using Cellstripper, a non-enzymatic cell dissociation solution from Mediatch (Corning: Manassas, VA 20109), Cat. #25-056-CL. Tumor cells (25,000/reaction) were suspended in FACS buffer (PBS+5% FBS+0.01% NaN₃) and mixed with a serial dilution of AdxDC for 1 hour on ice. Cells were washed three times with FACS buffer, and bound AdxDC was detected with His Tag PE-conjugated Antibody from R&D System, cat #IC050P, and read on a flow cytometer.
For orientation: Flow cytometry measures light scatter and fluorescence of single cells or particles in a stream.

The target is the same in assay [4]. Description: flow cytometry on Huh7 cells, alkylated Adnectin.
The target in assay [5] is T2, Recombinant human glypican-3 (aa …). In words: SPR.
In assay [6] the target is T1, Human glypican-3 on cells (Huh7, Hep3B, …). Description: staining of Hep3B xenograft tissue.
The target in assay [7] is T2, Recombinant human glypican-3 (aa …). In words: SPR, 37 C. How it is done: as §1, §2
Assay [8] has as its target T3, Recombinant murine glypican-3 (aa 25-557), R&D Systems (murine, UniProt Q8CFZ4 25-557).
T3 construct: also called muGPC3; Mu GPC3-His
Description: SPR, 37 C. How it is done:
as §1, §2

Assay [9] deals with T1, Human glypican-3 on cells (Huh7, Hep3B, …). In words: cell-based or functional assay. The source holds these as a separate data set.
Assay [10] shares this target. Description: flow cytometry on Huh7 cells, unconjugated protein; Huh7 cells; unconjugated protein. How it is done: (§3) The binding of DG variants to huGPC3 in DG GPC3 AdxDCs mutants were evaluated by flow cytometry for binding to Huh7 carcinoma cells grown in DMEM media with 10% FBS. Cells were harvested using Versene, an EDTA cell dissociation solution from Lonza, Cat. #17-711E. Tumor cells (1E5 cells/reaction) were suspended in FACS buffer (PBS, 1% BSA, 0.05% Na Azide) and mixed with a serial dilution of AdxDC for one hour on ice. Cells were washed three times with FACS buffer, and bound AdxDC was detected with an in house anti-scaffold monoclonal Ab and PE-conjugated Antibody from (RnD Systems), cat #NL007, and read on a flow cytometer.

For assay [11] the target is unchanged. In words: flow cytometry on Huh7 cells. How it is done:
as §3

For assay [12], the target named is T2, Recombinant human glypican-3 (aa …). Description: SPR 1-point off-rate, alkylated mutant vs parent.
For assay [13], the target named is T3, Recombinant murine glypican-3 (aa …). Description: SPR 1-point off-rate, alkylated mutant vs parent.
The target in assay [14] is T2, Recombinant human glypican-3 (aa …). Description: SPR, Biacore T100, GPC3-His immobilised, 1:1 fit. How it is done: (§4) The binding affinities of the alkylated GPC3 DG mutant adnectins for human and murine GPC3 were further evaluated by Biacore T100 using HBS-P+ running buffer with direct immobilization of human and mouse GPC3 proteins [Hu (Fc 2,3) and Mu (Fc 4) GPC3-His (R&D Systems)] with a 200-1.56 nM series injected for 180s association, 600s dissociation.

Assay [15] deals with T3, Recombinant murine glypican-3 (aa …). In words: SPR, Biacore T100, GPC3-His immobilised, 1:1 fit. How it is done:
as §4

For assay [16], the target named is T2, Recombinant human glypican-3 (aa …). In words: SPR, Biacore T100, 37 C, GPC3 immobilised, DAR1 AdxDC. How it is done:
as §1, §2

Assay [17] has as its target T3, Recombinant murine glypican-3 (aa …). The description is as above. How it is done: as §1, §2
Assay [18] deals with T2, Recombinant human glypican-3 (aa …). Description: SPR, as in the previous Examples. How it is done: as §1, §2
(§5) FITC Labeling: ADX_6077_F02 and non-binding control Adnectin were reduced with DTT or TCEP followed by G25 gel filtration chromatography or dialysis. Excess Fluorescein-5-maleimide reagent (Thermo Scientific) was then added and the mixture incubated at room temperature for approximately 2 hours followed by G25 gel filtration chromatography or extensive dialysis (3-4 buffer changes). The resulting degree of labeling was measured by absorbance following the manufacturer's instructions and/or by mass spectrometry. The binding affinities of FITC-labeled and PEGylated […] for human and murine GPC3 was evaluated as described in the previous Examples, and the results are summarized in Table 13.

Assay [19] deals with T3, Recombinant murine glypican-3 (aa …). Description: SPR, as in the previous Examples. How it is done:
as §1, §2, §5

T1 sequence (P51654 25-554 limits assumed): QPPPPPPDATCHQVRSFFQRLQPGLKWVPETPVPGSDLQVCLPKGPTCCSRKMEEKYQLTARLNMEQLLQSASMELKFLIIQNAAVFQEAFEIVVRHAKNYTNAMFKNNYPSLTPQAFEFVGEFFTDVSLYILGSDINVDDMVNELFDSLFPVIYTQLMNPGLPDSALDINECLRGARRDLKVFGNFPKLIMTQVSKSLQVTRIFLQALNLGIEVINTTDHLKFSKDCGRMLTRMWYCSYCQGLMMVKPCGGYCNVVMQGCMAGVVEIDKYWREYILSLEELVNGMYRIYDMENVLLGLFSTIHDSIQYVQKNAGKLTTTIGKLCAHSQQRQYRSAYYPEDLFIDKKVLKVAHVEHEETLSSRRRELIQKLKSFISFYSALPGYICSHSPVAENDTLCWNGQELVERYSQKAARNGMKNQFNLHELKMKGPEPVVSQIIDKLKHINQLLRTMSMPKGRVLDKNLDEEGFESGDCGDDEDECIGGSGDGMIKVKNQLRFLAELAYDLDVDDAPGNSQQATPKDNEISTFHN
T3 sequence (Q8CFZ4 25-557 limits assumed, form in doubt): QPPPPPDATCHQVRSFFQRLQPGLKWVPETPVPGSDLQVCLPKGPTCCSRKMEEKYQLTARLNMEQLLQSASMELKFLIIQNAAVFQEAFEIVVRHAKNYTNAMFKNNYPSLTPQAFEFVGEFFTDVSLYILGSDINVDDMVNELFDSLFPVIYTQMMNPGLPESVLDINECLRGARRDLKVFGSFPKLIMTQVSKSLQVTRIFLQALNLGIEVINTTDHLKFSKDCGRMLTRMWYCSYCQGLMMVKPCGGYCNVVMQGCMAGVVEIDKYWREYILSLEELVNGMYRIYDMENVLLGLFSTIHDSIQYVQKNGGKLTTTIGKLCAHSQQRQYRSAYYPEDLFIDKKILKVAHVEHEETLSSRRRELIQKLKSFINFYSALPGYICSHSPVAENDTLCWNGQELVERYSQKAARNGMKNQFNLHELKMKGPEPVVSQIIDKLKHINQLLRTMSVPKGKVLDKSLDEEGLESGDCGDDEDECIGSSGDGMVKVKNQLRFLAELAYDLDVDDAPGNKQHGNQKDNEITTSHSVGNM
T2 sequence (P51654 other isoform, or with tags, fused parts or gaps): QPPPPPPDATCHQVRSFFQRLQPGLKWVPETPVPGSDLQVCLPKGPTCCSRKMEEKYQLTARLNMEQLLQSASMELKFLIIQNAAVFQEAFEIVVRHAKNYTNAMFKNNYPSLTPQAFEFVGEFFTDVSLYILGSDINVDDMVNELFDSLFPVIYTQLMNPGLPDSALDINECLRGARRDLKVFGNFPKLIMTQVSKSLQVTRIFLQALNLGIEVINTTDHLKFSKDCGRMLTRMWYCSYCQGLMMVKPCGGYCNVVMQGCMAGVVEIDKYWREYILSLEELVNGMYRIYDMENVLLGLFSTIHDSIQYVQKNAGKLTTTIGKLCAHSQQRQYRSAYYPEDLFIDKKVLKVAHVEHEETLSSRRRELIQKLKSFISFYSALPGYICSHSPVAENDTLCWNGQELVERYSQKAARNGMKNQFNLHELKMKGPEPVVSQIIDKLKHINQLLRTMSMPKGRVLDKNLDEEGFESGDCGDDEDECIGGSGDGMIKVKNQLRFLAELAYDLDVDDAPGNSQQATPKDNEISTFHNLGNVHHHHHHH

B1: ADX_6093_A01 DAR1 AdxDC (non-binding control) (designed binder)
chain: MGVSDVPRDLEVVAATPTSLLISWDAPAVTVRYYRITYGETGGNSPVQEFTVPGSKSTATISGLKPGVDYTITVYAVTGRGESPASSKPISINYRTPCHHHHHH
modifications: tubulysin analog-linker (formula IV) on the C-terminal cysteine (DAR1)
notes: Control 10Fn3 with RGE in place of RGD; also called RGE AdxDC
With B1, in assay [1], the “AdxDC cell-killing IC50” value is above 25 nM. The binding result is listed as “no binding” in assay [2] and “no binding (tested: about 30 nM)” in assay [3].

B2: ADX_6093_A01 alkylated (non-binding control) (designed binder)
chain: MGVSDVPRDLEVVAATPTSLLISWDAPAVTVRYYRITYGETGGNSPVQEFTVPGSKSTATISGLKPGVDYTITVYAVTGRGESPASSKPISINYRTPCHHHHHH
modifications: C-terminal cysteine alkylated with iodoacetamide
In general, EC50 refers to the concentration that produces a half-maximal response. High values mean lower potency in that assay, low ones higher potency in that assay. In turn, B2 displayed an EC50 in assay [4] above 200 nM.

B3: RGE-FITC (designed binder)
chain: MGVSDVPRDLEVVAATPTSLLISWDAPAVTVRYYRITYGETGGNSPVQEFTVPGSKSTATISGLKPGVDYTITVYAVTGRGESPASSKPISINYRTPCHHHHHH
modifications: fluorescein-5-maleimide on the C-terminal cysteine
In the case of B3, the binding result in [5] is given as “no binding”; in [6], “no binding (tested: 0.2 µg/ml)”.

B4: GPC3_AdxDC DA variant-DAR1 (designed binder)
chain: GVSDVPRDLEVVAATPTSLLISWSDDYHAHRYYRITYGETGGNSPVQEFTVPGEHVTATISGLKPGVDYTITVYAVTYDAEKAATDWSISINYRTPC
modifications: tubulysin analog-linker conjugated to the C-terminal cysteine (DAR1)
notes: also called DA variant AdxDC DAR1; GPC3_AdxDC (DA) DAR1
A word on the Kd: it is the equilibrium constant for the complex coming apart. As a reminder, the koff is a measure of how fast the partners let go of each other. Regarding B4, in [7], the Kd came out at 25 nM and the koff was 0.0021 s⁻¹. In [8], the equilibrium dissociation constant (Kd) was 23 nM and the koff amounted to 0.00095 s⁻¹. For the same molecule, the “Cell-killing IC50 (Huh7)” value in assay [9] amounted to 0.2 nM.

B5: DA variant of ADX_6077_F02, unconjugated protein (designed binder)
chain: GVSDVPRDLEVVAATPTSLLISWSDDYHAHRYYRITYGETGGNSPVQEFTVPGEHVTATISGLKPGVDYTITVYAVTYDAEKAATDWSISINYRTPC
notes: also called DA variant, unconjugated
Molecule B5 returned an EC50 in [10] of 2.2 nM.

B6: ADX_6077_F02 DG→EG mutant, alkylated (designed binder)
chain: GVSDVPRDLEVVAATPTSLLISWSDDYHAHRYYRITYGETGGNSPVQEFTVPGEHVTATISGLKPGVDYTITVYAVTYEGEKAATDWSISINYRTPC
modifications: C-terminal cysteine alkylated
notes: also called P1-055673
For orientation: kon means a measure of how fast the partners come together. As for B6, the “huGPC3 on cells EC50 (mutant/parent)” value in assay [11] stood at 1.6 fold. Moreover, the “huGPC3 koff (mut/par)” value in [12] was found to be 5.4 fold. Besides, the “muGPC3 koff (mut/par)” value in assay [13] is 5.1 fold. Further, in [14], the “Fold affinity (KD) difference vs alkylated parent” value (shortened to “Fold affinity (KD) difference”) is 5.3 fold, the Kd worked out at 30 nM, the koff worked out at 0.00229 s⁻¹ and the kon came to 76300 M⁻¹ s⁻¹. In addition, in [15], the “Fold affinity (KD) difference” value came to 5.1 fold, the Kd is 19 nM, the koff was 0.0021 s⁻¹ and the kon was 110000 M⁻¹ s⁻¹.

B7: ADX_6077_F02 DAR1 AdxDC (GPC3-tubulysin Adnectin drug conjugate) (designed binder)
chain: MGVSDVPRDLEVVAATPTSLLISWSDDYHAHRYYRITYGETGGNSPVQEFTVPGEHVTATISGLKPGVDYTITVYAVTYDGEKAATDWSISINYRTPCHHHHHH
modifications: tubulysin analog-linker (formula IV) conjugated through its maleimide to the C-terminal cysteine (DAR1)
notes: also called GPC3 AdxDC DAR1; ADX_6077_F02-961
As to B7, the “AdxDC cell-killing IC50” value in [1] is 0.2 nM. In addition, in assay [16], the Kd was 12 nM and the koff came out at 0.00098 s⁻¹. In assay [17], the dissociation constant (Kd) is 11 nM and the off-rate (koff) is 0.00077 s⁻¹.

B8: ADX_6077_F02 alkylated (designed binder)
chain: MGVSDVPRDLEVVAATPTSLLISWSDDYHAHRYYRITYGETGGNSPVQEFTVPGEHVTATISGLKPGVDYTITVYAVTYDGEKAATDWSISINYRTPCHHHHHH
modifications: C-terminal cysteine (of PC) alkylated with iodoacetamide
notes: also called alkylated (capped) Adnectin; alkylated parent
As to B8, in [18], the Kd was 5.88 nM, the dissociation rate constant (koff) is 0.000524 s⁻¹ and the kon was found to be 89000 M⁻¹ s⁻¹. In assay [19], the Kd turned out to be 3.69 nM, the koff amounted to 0.000453 s⁻¹ and the on-rate (kon) was 123000 M⁻¹ s⁻¹. For the same molecule, the 50% effective concentration (EC50) in [4] was 5 nM. In addition, in [14], the “Fold affinity (KD) difference” value came out at 1 fold, the Kd stood at 5.6 nM, the koff stood at 0.000534 s⁻¹ and the on-rate constant (kon) is 95300 M⁻¹ s⁻¹. Also, in [15], the “Fold affinity (KD) difference” value is 1 fold, the equilibrium dissociation constant (Kd) was found to be 3.8 nM, the koff was 0.00049 s⁻¹ and the kon came to 130000 M⁻¹ s⁻¹.

B9: ADX_6093_A01-961(DAR2) (designed binder)
10Fn3 domain: MGVSDVPRDLEVVAATPTSLLISWDAPAVTVRYYRITYGETGGNSPVQEFTVPGSKSTATISGLKPGVDYTITVYAVTGRGESPASSKPISINYRTPCPPPPPCHHHHHH
modifications: the two C-terminal cysteines each carry the tubulysin analog-linker of formula (IV) (Drug/linker (2x), DAR2)
notes: It is the DAR2 counterpart of m12
Regarding B9, in assay [3], the binding result is “no binding (tested: about 30 nM)”.

For the origin of these results see patent US20230312686A1 (Bristol-Myers Squibb, published 2023).
